Residues, ends and D or L forms follow the SMILES beside them. *: point of attachment. Succinimide(1-Et,3-yl) = CCN1C(=O)CC(*)C1=O; Palmitoyl = CCCCCCCCCCCCCCCC(=O)*

This note sets out measurements from patent US20100075907A1, “NEUROMEDIN U RECEPTOR AGONISTS AND USES THEREOF” (priority 2006, published 2010).

Common to all, as to format: cell-based
For one test, the target named is T1, Mouse NMUR1-CTG (Mus musculus, UniProt O55040).
T1 sequence (O55040 1-428): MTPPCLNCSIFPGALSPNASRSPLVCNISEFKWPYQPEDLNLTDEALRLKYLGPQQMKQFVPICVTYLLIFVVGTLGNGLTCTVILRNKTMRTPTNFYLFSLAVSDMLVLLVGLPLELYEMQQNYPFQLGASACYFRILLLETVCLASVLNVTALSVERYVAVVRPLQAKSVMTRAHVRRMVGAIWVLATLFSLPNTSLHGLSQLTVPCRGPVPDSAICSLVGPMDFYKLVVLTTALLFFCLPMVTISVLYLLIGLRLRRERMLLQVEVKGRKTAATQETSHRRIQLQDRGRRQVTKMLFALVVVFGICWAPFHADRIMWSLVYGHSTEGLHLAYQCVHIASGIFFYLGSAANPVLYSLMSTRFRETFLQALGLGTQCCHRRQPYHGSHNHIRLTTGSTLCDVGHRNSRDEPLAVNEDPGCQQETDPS
Briefly: FLIPR calcium mobilization assay, mouse NMUR1-CTG. Details: expressed in transfected cells; host or cells: FLP-In CHO or HEK-293 FLP-In cells (pcDNA5). The note with it: mouse NMUR1-CTG; for % Activity: maximum response at 1 μM compared to hNMU-25; for EC50: FLIPR. An excerpt:
(§1) Human, mouse or rat cDNAs encoding NMUR1 or NMUR2 (as described in Howard et al. Nature 406: 70-74 (2000) were subcloned in pcDNA5 (Invitrogen) and transfected into FLP-In CHO cells and HEK-293 FLP-In cells purchased from Invitrogen (Carlsbad, Calif.) using lipofectamine (Invitrogen). The Flp-In system allows integration and expression of a particular gene of interest at a specific genomic location utilizing the Flp recombinase from yeast. The transfected cells were selected by growth in medium containing 200 μg/mL hygromycin (Invitrogen). Populations were frozen at early passage numbers, and these stocks were used for further studies. Stable clones that expressed the mRNAs were identified functionally by FLIPR as well as by RT-PCR. […] Two different rodent NMUR1 cell lines were thus generated: one with the codon as predicted from the genomic databases and another cell line with an engineered methionine (ATG) as the start codon. Additionally, stable cell lines expressing the human receptors were generated in HEK-293/aeq17 cells which stably express the aequorin gene under the CMV promoter. The human NMUR2 cDNA was cloned into pcDNA3.1 and human NMUR1 was subcloned into pIRES-puro (Clontech, Mountain View, Calif.), after transfection cells were selected in media containing G418 and either hygromycin (NMUR2) or puromycin (NMUR1).
(§2) The NMU receptors signal primarily through Gαq/11 proteins; therefore calcium mobilization assays can be utilized for functional activity.
(§3) Stable cell lines expressing human and or rodent NMUR1 or human NMUR2 receptors were plated at a density of 12,000 cells per well overnight on poly-lysine coated 384-well black-walled plates. The following day, the media was removed from the plates and the cells were subsequently loaded with Fluo-3 (Molecular Probes), a calcium sensitive dye, diluted in FLIPR buffer (1× Hank's buffered saline containing 20 mM HEPES, 0.1% BSA, 2.5 mM probenecid (Sigma) and 1.6 mM TR40). All reagents are from Invitrogen unless otherwise noted. Peptide stocks were resuspended in DMSO at a stock concentration of 2 mM and diluted in FLIPR buffer on the day of the experiment to a 4 μM working stock solution.
(§4) After a 90 minute incubation at room-temperature, cell plates were loaded onto a FLIPR (Molecular Devices) to monitor cellular fluorescence (excitation=488 nm; emission=540 nm) before and after compound/peptide addition. Eight to twelve point dose responses were tested on NMUR-expressing cell lines using FLIPR with 1 μM peptide as the highest dose. The response after peptide addition was taken as the maximum fluorescence units minus the fluorescence immediately prior to stimulation for each well. EC50 values were calculated using GraphPad Prism (San Diego, Calif.) software.
(§5) In vitro responses of Neuromedin U receptor agonists (NMU1 to NMU25) in the FLIPR assay for human (Table 3), mouse (Table 4) and rat (Table 5) NMUR1 and NMUR2. EC50s are reported in nM values. Percent activity refers to the maximum response at 1 μM compared to the hNMU-25 response at the same concentration. NT=not tested.
Background: Calcium assays in cells follow changes in intracellular calcium, usually with a dye or a luminescent sensor.

A further test concerns the target T2, hNMUR1 (Homo sapiens, UniProt Q9HB89).
T2 sequence (Q9HB89 1-426): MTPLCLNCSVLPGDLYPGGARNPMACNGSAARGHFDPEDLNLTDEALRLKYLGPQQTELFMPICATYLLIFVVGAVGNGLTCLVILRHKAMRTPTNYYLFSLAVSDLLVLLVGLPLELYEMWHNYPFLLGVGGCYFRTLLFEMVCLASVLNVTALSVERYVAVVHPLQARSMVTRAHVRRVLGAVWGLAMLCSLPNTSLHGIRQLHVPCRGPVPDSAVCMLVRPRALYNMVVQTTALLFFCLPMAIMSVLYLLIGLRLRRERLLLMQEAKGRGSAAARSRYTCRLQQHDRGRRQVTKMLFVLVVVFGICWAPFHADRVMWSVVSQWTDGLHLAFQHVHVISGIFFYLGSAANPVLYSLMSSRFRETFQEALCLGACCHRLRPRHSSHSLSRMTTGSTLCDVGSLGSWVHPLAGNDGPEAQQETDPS
Nature of the test: FLIPR calcium mobilization assay, human NMUR1. The arrangement: expressed in transfected cells; host or cells: FLP-In CHO or HEK-293 FLP-In cells (pcDNA5); HEK-293/aeq17 lines (pIRES-puro) were also made. The note with it: human NMUR1; for % Activity: maximum response at 1 μM compared to hNMU-25 response at same concentration; for EC50: FLIPR.

For the next test, the target named is T3, rat NMUR1-TTG (Rattus norvegicus, UniProt Q9JJI5).
T3 sequence (Q9JJI5 1-425): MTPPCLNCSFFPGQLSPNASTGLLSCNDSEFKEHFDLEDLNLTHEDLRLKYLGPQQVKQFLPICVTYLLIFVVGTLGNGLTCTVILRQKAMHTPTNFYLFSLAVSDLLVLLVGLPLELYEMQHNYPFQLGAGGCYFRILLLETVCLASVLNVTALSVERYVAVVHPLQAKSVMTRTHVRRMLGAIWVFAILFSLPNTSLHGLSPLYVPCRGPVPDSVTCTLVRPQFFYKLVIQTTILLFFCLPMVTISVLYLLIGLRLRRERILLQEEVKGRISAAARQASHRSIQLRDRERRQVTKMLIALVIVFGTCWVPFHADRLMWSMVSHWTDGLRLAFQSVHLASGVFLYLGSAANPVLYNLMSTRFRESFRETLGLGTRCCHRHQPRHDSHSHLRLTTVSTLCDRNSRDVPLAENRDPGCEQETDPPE
Nature of the test: FLIPR calcium mobilization assay, rat NMUR1-TTG. The arrangement: expressed in transfected cells; host or cells: FLP-In CHO or HEK-293 FLP-In cells (pcDNA5). The note with it: rat NMUR1-TTG; for % Activity: maximum response at 1 μM compared to hNMU-25; for EC50: FLIPR.
From the text: as §1, §2, §3, §4, §5

As for `CCCCCCCCCCCCCCCC(=O)N[C@@H](CSC1CC(=O)N(CC)C1=O)C(=O)N[C@@H](Cc1ccccc1)C(=O)N[C@@H](CCCNC(=N)N)C(=O)N[C@H](C(=O)N[C@@H](CC(=O)O)C(=O)N[C@@H](CCC(=O)O)C(=O)N[C@@H](CCC(=O)O)C(=O)N[C@@H](Cc1ccccc1)C(=O)N[C@@H](CCC(N)=O)C(=O)N[C@@H](CO)C(=O)N1CCC[C@H]1C(=O)N[C@@H](Cc1ccccc1)C(=O)N[C@@H](C)C(=O)N[C@@H](CO)C(=O)N[C@@H](CCC(N)=O)C(=O)N[C@@H](CO)C(=O)N[C@@H](CCCNC(=N)N)C(=O)NCC(=O)N[C@@H](Cc1ccc(O)cc1)C(=O)N[C@@H](Cc1ccccc1)C(=O)N[C@@H](CC(C)C)C(=O)N[C@@H](Cc1ccccc1)C(=O)N[C@@H](CCCNC(=N)N)C(=O)N1CCC[C@H]1C(=O)N[C@@H](CCCNC(=N)N)C(=O)N[C@@H](CC(N)=O)C(N)=O)C(C)C` (stereo partly drawn) [NMU24] (Palmitoyl-C(Succinimide(1-Et,3-yl))FRVDEEFQSPFASQSRGYFLFRPRN-NH2), the “% Activity” value on Mouse NMUR1-CTG is 56.1%; on hNMUR1, 34.4%; on rat NMUR1-TTG, 67.7%.
Take “Ac-C2FQSPFASQSRGYFLFRPRN-CONH2 ({Ac-C(PEG 40 kDa)}-FQSPFASQSRGYFLFRPRN-NH2; not fully specified; printed as Ac-C2FQSPFASQSRGYFLFRPRN-CONH2) [NMU20, C2 = Cys(PEG)240 kDa]”: the figures for the EC50 with Mouse NMUR1-CTG, with hNMUR1 and in the test with rat NMUR1-TTG were 0.48 µM, 0.0164 µM and 0.0244 µM, respectively. The “% Activity” value with Mouse NMUR1-CTG is reported as 65.4%; with rat NMUR1-TTG, 93.8%.
As for “Ac-C4-C4-FRVDEEFQSPFASQSRGYFLFRPRN-CONH2 ({Ac-C(PEG 20 kDa)-C(PEG 20 kDa)}-FRVDEEFQSPFASQSRGYFLFRPRN-NH2) [NMU23, C4 = Cys(PEG)20 kDa]”, the values for the EC50 with Mouse NMUR1-CTG and in the test with hNMUR1 were 0.77 µM and 0.3 µM, respectively. In addition, the “% Activity” value in the test with Mouse NMUR1-CTG came to 50.9%; in the test with hNMUR1, 66.9%; with rat NMUR1-TTG, 39.8%.
Turning to “Ac-C4FRVDEEFQSPFASQSRGYFLFRPRN-CONH2 ({Ac-C(PEG 20 kDa)}-FRVDEEFQSPFASQSRGYFLFRPRN-NH2) [NMU21, C4 = Cys(PEG)20 kDa]”, the values for the EC50 with Mouse NMUR1-CTG, with hNMUR1 and in the test with rat NMUR1-TTG were 0.0563 µM, 0.0145 µM and 0.22 µM, respectively. Moreover, the “% Activity” value turned out to be 90.8% in the test with Mouse NMUR1-CTG, 93.2% with hNMUR1 and 77.5% with rat NMUR1-TTG.
Regarding “Pam-C2FRVDEEFQSPFASQSRGYFLFRPRN-CONH2 ({Palmitoyl-C(PEG 40 kDa)}-FRVDEEFQSPFASQSRGYFLFRPRN-NH2) [NMU25, Pam = palmitoyl; C2 = Cys(PEG)240 kDa]”, the concentration giving a half-maximal response (EC50) (in general, the concentration needed to bring the measured effect to its halfway point) with Mouse NMUR1-CTG is 0.0603 µM; with hNMUR1, 0.168 µM; with rat NMUR1-TTG, 0.081 µM. For the same molecule, the results for the “% Activity” value with hNMUR1 and with rat NMUR1-TTG were 83.0% and 93.5%, respectively.
